Experimental findings from article PMC5358979 are described below.

The test system of data set [1] is FEN1 WT (Homo sapiens). Kind of data set: smFRET. To be noted: smFRET reaction buffer with CaCl2 (binding) or MgCl2 (cleavage), SPR in same buffer with CaCl2, no oxygen scavenger, salt, pH and temperature not given in the …; for Kd: Ca2+, Kd-bending.
The test system of data set [2] is FEN1 WT (Homo sapiens). Kind of data set: smFRET dwell-time kinetics. To be noted: smFRET reaction buffer with CaCl2 (binding) or MgCl2 (cleavage); SPR in same buffer with CaCl2, no oxygen scavenger; salt, pH and temperature not given in the ….

Usually Kd stands for a measure of binding affinity in units of concentration. As for NonEQ DF-6,1Flap, the Kd in data set [1] came to 3.9 nM.

Take EQ DF-6,1Flap: the Kd in data set [2] was found to be 3.2 nM. Consider DF-7,1mismatch(1nt), for which, in data set [1], the binding signal (fold Kd-bending increase vs DF-6,1) is 7. In the case of NonEQ DF-6,1dsDNA, the Kd in data set [1] came out at 4.6 nM.

As to SF-6,0Flap, the Kd in data set [2] is 166 nM.
